Sequences and labels used below:
T1: recombinant human Siglec-15 protein (Homo sapiens, UniProt Q6ZMC9)
T1 construct: purchased Bonopusbio CW70-50 ug
T1 sequence (Q6ZMC9 20-263 limits assumed): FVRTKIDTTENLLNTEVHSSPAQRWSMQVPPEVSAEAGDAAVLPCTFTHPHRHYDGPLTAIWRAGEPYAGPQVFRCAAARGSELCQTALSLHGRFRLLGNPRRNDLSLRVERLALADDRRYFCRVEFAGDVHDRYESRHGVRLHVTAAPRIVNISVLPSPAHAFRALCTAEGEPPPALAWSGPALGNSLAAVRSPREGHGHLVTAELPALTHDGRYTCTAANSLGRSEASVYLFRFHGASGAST

T2: THP-1 cells overexpressing human Siglec-15 (Homo sapiens, UniProt Q6ZMC9)
T2 construct: Human full-length Siglec-15 and CD19 genes were synthesized and cloned into the pLV-MSCV lentiviral vector; His; expressed in transfected cells; host or cells: THP-1 (lentiviral overexpression, 'THP-1 S15 OE')
T2 sequence (Q6ZMC9 20-328): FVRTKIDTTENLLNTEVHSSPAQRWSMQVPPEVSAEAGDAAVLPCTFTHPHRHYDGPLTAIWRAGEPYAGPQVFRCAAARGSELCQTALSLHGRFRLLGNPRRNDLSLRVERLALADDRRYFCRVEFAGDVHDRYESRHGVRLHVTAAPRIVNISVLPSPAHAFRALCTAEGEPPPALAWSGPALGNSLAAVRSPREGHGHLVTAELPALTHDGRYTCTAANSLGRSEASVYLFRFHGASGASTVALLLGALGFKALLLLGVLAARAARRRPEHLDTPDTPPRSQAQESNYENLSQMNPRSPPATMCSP

B1: S15B1-VH1 + VL2: humanized S15B1 antibody, humanized VH1 (SEQ ID NO: 103) with humanized VL2 (antibody, V domains shown)
VH: QVQLVQSGAEVKKPGASVKVSCKASGYAFSSSWMNWVRQAPGQGLEWIGRIYPGHGETNYNGKFKDRVTMTADTSTSTVYMELSSLRSEDTAVYFCARVDNSDPYYFDYWGQGTTVTVSS
VL: DIVLTQSPASLAVSPGQRATITCRASKSVSTSGYSYMHWYQQKPGQPPKLLIYLASNLESGVPARFSGSGSGTDFTLTINPVEAEDTATYYCQHGRELPFTFGGGTKLEIK
B2: S15B1-VH1 + VL1: humanized S15B1 antibody, humanized VH1 (SEQ ID NO: 103) with humanized VL1 (antibody, V domains shown)
VH: B1 VH
VL: B1 VL with T89N
B3: S15B1-VH4 + VL2: humanized S15B1 antibody, humanized VH4 with humanized VL2 (antibody, V domains shown)
VH: B1 VH with R38K, V68A, T74K
VL: B1 VL
B4: S15B1-VH3 + VL1: humanized S15B1 antibody, humanized VH3 with humanized VL1 (antibody, V domains shown)
VH: B1 VH with R38K, V68A
VL: B1 VL with T89N
B5: S15B1-VH3 + VL2: humanized S15B1 antibody, humanized VH3 with humanized VL2 (antibody, V domains shown)
VH: B1 VH with R38K, V68A
VL: B1 VL
B6: S15B1-VH2 + VL2: humanized S15B1 antibody, humanized VH2 with humanized VL2 (antibody, V domains shown)
VH: B1 VH
VL: B1 VL
B7: S15B1-VH2 + VL1: humanized S15B1 antibody, humanized VH2 with humanized VL1 (antibody, V domains shown)
VH: B1 VH
VL: B1 VL with T89N
B8: S15B1-VH4 + VL1: humanized S15B1 antibody, humanized VH4 with humanized VL1 (antibody, V domains shown)
VH: B1 VH with R38K, V68A, T74K
VL: B1 VL with T89N
B9: ZLA-1243-E01-MMAE (conjugate)
VH: QVQLVQSGGGLVQPGRSLRLSCAASGFTFDDYAMHWVRQAPGKGLEWVSGISWNSGSIGYADSVKGRFTISRDNAKNSLYLQMNSLRAEDTALYYCAKGLWPSYDLDAFDIWGQGTMVTVSS
VL: QSALTQPASVSGSPGQSITLSCTGTSSDVGAYNFVSWYQQHPGTAPKLMIYEVSNRPSGVSDRFSGSKSGNTASLTISGLQAEDEADYYCSSYTSTIPPFVFGTGTKVTVL

Where a chain is given by its changes, count along the chain named.

The first test deals with T1, recombinant human Siglec-15 protein. Nature of the test: BIACORE surface plasmon resonance binding affinity. Conditions: SPR; antibody as ligand, human Siglec-15 as analyte; 1:1 Langmuir model. An excerpt: Binding affinity determination of anti-Siglec-15 monoclonal antibodies using BIACORE surface plasmon resonance: The purified anti-Siglec-15 monoclonal antibodies (mAbs) were characterized for binding affinity and binding kinetics by Biacore T200 system (GE healthcare, Pittsburgh, PA, USA). Anti-Siglec-15 antibodies were covalently linked to a CM5 chip (carboxy methyl dextran coated chip, GE healthcare, Cat #BR-1005-30) via primary amines, using a standard amine coupling kit provided by Biacore (GE healthcare, Pittsburgh, PA, USA). Un-reacted moieties on the biosensor surface were blocked with ethanolamine. Then, serially diluted recombinant human Siglec-15-his protein (Bonopusbio, CW70-50 ug), 2-fold serial dilution in HBS-EP buffer starting at 80 nM, were respectively flown onto the chip at a flow rate of […]. The antigen-antibody association kinetics was followed for 2 minutes, and the dissociation kinetics was followed for 10 minutes. The association and dissociation curves were fit to a 1:1 Langmuir binding model using BIAcore evaluation software. The dissociation rate (kd) and association constant (ka) rate constants were obtained using Evaluation Software. The equilibrium dissociation constant (KD) was calculated from the ratio of kd over ka.
B1: the “ka” value is 3.54e+06 M⁻¹ s⁻¹ and the “kd” value was 0.000563 s⁻¹. In the case of B2, the “ka” value turned out to be 3.35e+06 M⁻¹ s⁻¹ and the “kd” value came to 0.000455 s⁻¹.

For the molecule B3, the “ka” value was 1.69e+06 M⁻¹ s⁻¹ and the “kd” value came out at 0.000234 s⁻¹. B4: the “ka” value amounted to 3.73e+06 M⁻¹ s⁻¹ and the “kd” value amounted to 0.000257 s⁻¹. In the same order, the values of B5 are 4.49e+06 M⁻¹ s⁻¹ and 0.000293 s⁻¹. On to B6, for which the “ka” value is 3.44e+06 M⁻¹ s⁻¹ and the “kd” value was determined as 0.000326 s⁻¹. In the same order, the values of B7 are 3.8e+06 M⁻¹ s⁻¹ and 0.000473 s⁻¹.

For the molecule B8, the “ka” value amounted to 4.1e+06 M⁻¹ s⁻¹ and the “kd” value turned out to be 0.000385 s⁻¹.

The next test concerns the target T2, THP-1 cells overexpressing human Siglec-15. Description: Binding of anti-Siglec-15 ADCs to THP-1 S15+ cells (flow cytometry). The note with it: relative to Trastuzumab-based ADC negative control. On the procedure:
Binding of anti-Siglec-15 ADCs to THP-1 S15+ cells: 50,000 cells/well of THP-1 S15 OE cells were added to a round bottom 96 well plate, centrifuged at 450×G for 5 minutes and the supernatant discarded. Human anti-siglec-15 IgG ADCs were prepared (starting at 198 nM, 3-fold serial dilution in staining buffer) and the cells were resuspended in 100 μl of ADC. Cells were incubated for 40 minutes on ice and 100 μl of staining buffer were added to each well, followed by centrifugation at 450×G for 5 minutes and supernatants were discarded. The secondary antibody was prepared (anti-human IgG-PE at 1:500 dilution) and added 100 μl to each well. Cells were incubated for 40 minutes on ice and 100 μl of staining buffer were added to each well followed by centrifugation at 450× G for 5 minutes to then discard the supernatant. Cells were resuspended in 150 μl of staining buffer and acquired in a flow cytometer.
Background: A flow cytometer gives signals particle by particle.
On to B9, for which the “binding capacity to THP-1 cells overexpressing human Siglec-15” value is recorded as “increased binding capacity”.
